experiment: soluble on expression in E. coli; label from the status in PepcDB or PDB records

Q: Which “soluble on expression in E. coli” value does the source give for “MAKRKAEDTQSDKMATAEKVAQNDYTIGLVDPVKDYQKLIETRVQVDEIVDDDVTKENFDRTAAAARDVIWRLLFDEAGTSQSNTEKASQLLEEYRGDACFYDPTPYNEWIVKLRDEVLKKELLDFWRDVLVKKQLGPCWSRDSDLFDSDDTPPLEFYAHAGCTAPFAASLKVRAALEEQASLDQDGPATPTTPGELSADDAAALSGEFEATLTKENPLEEYRTLMKRFVLTKIIVPDSVHQASVKKIAAAAREIIWKLLFDGTPSAEDQNKAAELLQEYKGDAGFYGPDDYNSWIFNLRDEVLTKELLDFWRDKMVKMELGPSCARDSDYYDNEDPLPFEFYEKAGCKAPFEGPVNDD” here?
A: soluble

Q: For “MGSSHHHHHHSSGRENLYFQGHMTRSAEPRVLQFCHGYDGPFLDCARQYASLFAGTPYKVTTVFLTGRSDPEVAARCASDEVLFLEYGSRDIRGLKLKAIRDLREIARSRDFRFCIAHRFKPIWIASLATRLPIVGVHHAFGDYQRLSRKVFAGLMSKRLSLLAVSDAVRDDIRRCLPKWPAERIETLYNRIDVAALQAEQVERLSARRQLRLPDEAWVVGNVGRLHPDKDQATLLRGFAAALPRLPQNSLLAILGSGRLEEQLKDLACELGIGERVLFLGQVEEARRYFKAFDAFALSSDHEPFGMVLLEAMVAGVPLIATACGGAREVVEGVGILFPLGDETALAEGLTHLAALDRRQREACARLMLERLETRFSDAAVRREFWRLPTIAGFASESAC”, which “soluble on expression in E. coli” value is on record?
A: soluble

Q: For “MDMLNTLRDTLSSVQAELSTGVEKLRMNVSANIVAQQKVSTESVNEILNTSAGNELLQNFQNLITEVEENGAEGGRLANLCSTRMGRCQQMCKEKADAVMEIDEFLRNSVEFDKKIREINAQISKLTRFCNQTEQAMTYLEALCEVAHTEGEVDLIRQQAKSAATIVQIECESPSVLTSALRSRPEDAVKAQQEEVMLEEFLSSKNMQLP”, which “soluble on expression in E. coli” value is on record?
A: not soluble

Q: With “MRTSIATVCLSGTLAEKLRAAADAGFDGVEIFEQDLVVSPHSAEQIRQRAQDLGLTLDLFQPFRDFEGVEEEQFLKNLHRLEEKFKLMNRLGIEMILLCSNVGTATINDDDLFVEQLHRAADLAEKYNVKIAYEALAWGKFVNDFEHAHALVEKVNHKALGTCLDTFHILSRGWETDEVENIPAEKIFFVQLADAPKLSMDILSWSRHHRVFPGEGDFDLVKFMVHLAKTGYDGPISLEIFNDSFRKAEVGRTAIDGLRSLRWLEDQTWHALNAEDRPSALELR” as the sequence, how does the “soluble on expression in E. coli” value read?
A: not soluble

Q: For “MAKPSFSCSACGASFTKWSGRCEGCGDWNTISQDAGLSAGPAKKSLGAKRGRAVTLTDLASEEAPPPRAMSGIGELDRVLGGGLVPASAILVGGDPGIGKSTLLLQAVAAFARKGLKTLYVSGEEASAQVRMRARRLGLADAPVQLAAETNLRDILTTLEAEKPGLVIIDSIQTMWADNVDSAPGSVSQVRASAHELTTFAKRTGISVIMVGHVTKDGQIAGPRVVEHMVDTVLYFEGERGHQFRILRSVKNRFGAADEIGVFEMTGAGLAEVTNPSALFLSERGAPSPGSVVFAGIEGTRPVLVELQALVAPSPHSQPRRTVVGWDGGRLAMILAVLEARCGIPFAGLDVYLNVAGGLKISEPAADLAVAAALLSAREDRALPGDTVIFGEISLSGALRPASQTENRLKEAQKLGFTSAIAPAGGKTGTLEGLTMTRPTDLVGFVGEFFGAGLEHHHHHH”, which “soluble on expression in E. coli” value is on record?
A: not soluble

Q: Which “soluble on expression in E. coli” value does the source give for “MAHHHHHHMLSTNISSNLNNTLVNITGRENKGEWLLYPQSNYEFNIDEKLKNKFIIDKEKCKKRINAYNKNGIRNSVLAIILCHRYEYPHLLLLQHIESQKYYLLNGKYKTWEKPKEVLKKKLQKYINKIKDIHFTPAQINKEQEETVEIGDFLGEWWRTQFNSVFLPYLPAHISRPKEYIRLYQVILSPKCIFHLPPGFTLKAIPLFDLNNCGLAISGLSSILSRFKLHCMVQEQDAEN” here?
A: not soluble

Q: Which “soluble on expression in E. coli” value does the source give for “MSRFFHAKEDSDSDTSSSEDEVEDQKVNKSAKFRDDLDFMAGPEEDEKRVVRAQKDKKFDELKGIIKQNRDAKSNKDLNRLLTGFDSLAKAYDKSKTVFQRQNVANPRFYIRSLVEIEDYVNKLWDDKDAKSALSKNNAKALPPLRQKLKKYIKDQQLQDLVTDYRVNPDEDGYETPEDEDDDDFGEVSESKAEKSPGKPSEKAAVSDSDSDSDDDDSSNWSSEPESNSSDDEDSVTKMEQLRRYFLKKEFRVESKDDKKEKKKRVIRVKEAVEEDDDADWTPVNREKSVVHFDPKEEVTHDVMIKKLNEVMSARGKRTTDRNQHVANLRKLLEVSEEKELGLGINVKISFCIISALFELNAKISDHMEYETFMTTLQTVNSLLDLLIGTDRVKLSVTYAEEDENLKDDTQEYRIQGSILIAVQRLDGELAKILQNADCHSNDYIEKLKAEKDMCSLIEKAEKYVELRNDSGIFDKHEVCKVYMMRIEHAYYKYQDQNEEDAGKLMDYLCNKIYTLDDEKRLRQRAMLCHVYYLAVHDKWHRARDLLLMSHMQAIVDHSDVDTQILYNRTICQLGLCAFRHGFIREAHQGLSEIQNTQRAKELLAQAVGTRQHEKTAEQEKIDRSRQVPYHMHINVELMECVYLICSMLLEIPHMASCEFEMRRRMLSRSFHYQLKQSEKASLTGPPENTREHVVAASKAMLNGDWKKCQDYIVNDKMNQKVWNLFHNAETVKGMVVRRIQEESLRTYLLTYSTVYATVSLKKLADLFELSKKDVHSIISKMIIQEELSATLDEPTDCLIMHRVEPSRLQMLALNLSDKLQTLAENNEQILEPRTGRGGYQGPGSWFPGRNERQGDKQKGSGGYQGERRGGQGQDGKRGNWGSQGGQQRRHPQKPRAF” here?
A: not soluble

Q: With “MRKLWVAFFASLVLAMPSWVSARSHAGGGADVHLPVGHMWKHEGLDEQKWMEMVQKYTPEQEEEWKKVLDERNALRQQLNDENVKQAIKEKCKKMKKEREAALDRLIDQLVDKKITKEQFKKEWKQLHKKKQWMTKEEKQQLHLLHEQTRQAMENNDQEAMKKLLPQWLDHMKKKNERLAKWLQEVKQG” as the sequence, how does the “soluble on expression in E. coli” value read?
A: not soluble

Q: With “MAHHHHHHMKHIATQHHRGVVADPQPIHRNTRRAVKVQTRPRDQPRDREAVPADRDVRVRWKITLRAEQRVTKCVTGDDDVQRPHSGVRIAQQQQHGAVPPRASIERDVRHVARHRTNQHRQAHAAPAERHVAVAQPRQPAAHSLRNLGVHHVADALTNRRWRWCGRRWRWRWRRGQWRRASRHRRRDARIAVPSSSALALAANDRRRQRCKAVALLRALPARSNRRHVGDAVELQLCRRRQQTSRDRQAPSNEPVTGVNPR” as the sequence, how does the “soluble on expression in E. coli” value read?
A: not soluble

Q: For “MVDSKKRPGKDLDRIDRNILNELQKDGRISNVELSKRVGLSPTPCLERVRRLERQGFIQGYTALLNPHYLDASLLVFVEITLNRGAPDVFEQFNAAVQKLEEIQECHLVSGDFDYLLKTRVPDMSAYRKLLGETLLRLPGVNDTRTYVVMEEVKQSNRLVIKTR”, which “soluble on expression in E. coli” value is on record?
A: not soluble

Q: Which “soluble on expression in E. coli” value does the source give for “MKCPYCGHPDTRVVDSRPSDEGMAIRRRRECPSCGRRFTTYERTQLEPLMVVKRDGRKEPFNPDKLLRGLLLACEKRPVSEEVLRRFAYTFEDQVSGPEITSEEIGLKALAFLKELDHVAYIRFASVYREFDSVERFIEEIRSLASLN” here?
A: soluble

Q: With “VDSVFVVGHKNLDMDALGASVGMQAFANNIIEHAAYAVYDEDSMSHDVARAVNRLKEDGHTQLLTVKESIEQVSDNSLLVMVDHSKLQLTLSRELYNKFTEVIVIDHHRRDDDFPENAILTFIESGASSASELVTELLQFQNGKYHLNKIQASIVMAGIMLDTKSFSTRVTSRTFDVASYLRTLGSDNVEIQNISALDF” as the sequence, how does the “soluble on expression in E. coli” value read?
A: not soluble

Q: Which “soluble on expression in E. coli” value does the source give for “MVKLHLKTTCREVPIEEIISTGQIQFFKHLSESTSEFKDQKNVERFRLIYNGRALNEESLKKITDADSIRVVLLPPLKTNNHIEEEQKNRISIALKECTAPYTRPNDRRLHGFNHDFALPDHMTTLLEKHPQLVHDNQFLSVLSDWSLFRAYCVQNDFKDDPIRGQFMYTNPDFLKVVENILSTVGSRYGYENLDYANVERNRPGMLAAQRPIGGAQPVTHALLQNALQAALANIAVPPANRVPAPANVQPAQQQQEEPMQQGYEQQAATLREFGFENDELIQLALEQANGDVQAAMEFLIDLQN” here?
A: not soluble

Q: Which “soluble on expression in E. coli” value does the source give for “MAYETFAFVYDEVMDESLYQKWLDFSNRHLPQGTQQILEMACGTGALAVDFAKSGYDVTALDLSEEMLMIASERAFEEEVPVQFVQGNMLDLSEVGQYQAITCFSDSLCYMANRQEVQQVFDEVYQALEEEGTFIFDVHSTYKIDSVFPEYSYHYQTEEFAFLWDSYAGEKEHSIEHFLTFFVKEQETDEHFVRYDELHQERTYSLDNYLRMLESAGFMNVKVYADFTDEAPTETSERWFFVCQRD” here?
A: not soluble

Q: With “MSLELENFQEYNDPVLYDKENRYTGDIPFLLKWAGKVDGTIVDLACGTGRATIPLASKGYKLMGVDVHKGMLEAAREKSSRLNLPIEWIKQDCTKLSLNLMSPFIYSVGNVFQHFLTNEEQDSFLTSVNKHLKESGIFIFDTRFPSKEELLQPNTEEYWKSYQDTDTGQKVDVYTISQYDPLTQIQHYTMIRKSVNAEGLAVNEKRTNIRLRYVFPKEMERLLSANGFEIIDVYQDWQETPLTRDSDQMIYVCKKSSEGHHHHHH” as the sequence, how does the “soluble on expression in E. coli” value read?
A: soluble

Q: With “MEVQFKNTRKGYYLNSERIELHKGDVVAVEANPGHDIGTVTLTGKLVKLQMRKHRYNTNNGEPFKIYRIAKQGDLDKYCEAKAREYDTMIQSRQISAELNLDMKIGDVEYQGDGNKAIFYYIADERVDFRQLIRVLAETFHIRVEMKQIGARQEAGRIGGIGPCGRQLCCSAWKMNFVSVNTSAARYQDLALNPQKLTGLCAKLKCCLNYEVDAYVEARKKMPSPEIVLETKESAYHYFKADVFRREVSYSTVPNAPVNLTTISARRAFEVISQNKQGFKPVSLEYDDKKQSSGHELSDILTDNSLTRFDDALSRRRRRNGNGNRDFSDREKAGEPHRTPDSIQPTPRVRSSSRMPSREKSPRPEGGDRRENMRERSRGDARFARPYTNEGGSERMEGARRVVGSGRRPPRQSTPRQEDRQGERKEE” as the sequence, how does the “soluble on expression in E. coli” value read?
A: not soluble

Q: For “MGSDKIHHHHHHMEPFSPLNWFRRSSSQASCRTALSSQPSLEAAVNEVAAALAGGSSADLALVFASTHYASDLQRLLPLLQRRLKATHWLGCAGGGVIGTTAKGNASELEKEPALSITMLQLPGAILKPFYLETQSLPDLDGPAQHWQEWVGADPFNARSMLLLVDPSSRSINDLISGLDYAYPTTTKLGGIAGPHNAPHGSLFFDDRVVMGAVGCSFGGDWNLEVVVAQGCKPIGPVFAIEQVQKNILLELSHENQRDSPMACLQRVLDDLSEEEREMVRHSLFLGIERRDLVLAGTGAPQPQGAFLVRNLIGVDPKNGAVAVAEQIRAGQNVQFQLREAEASRQESELLLGAARERNTSPPLFGLLMACLGRGHGLYGVPNGDVHIARKLMAELPIAGVFCNGEIGPAGGVGATHIHGYTACWGLLRHDPSSSEPAKSV”, which “soluble on expression in E. coli” value is on record?
A: not soluble

Q: Which “soluble on expression in E. coli” value does the source give for “AIAADSAVRGPPGMGGTSTDNMDSVVQGDRRPGSHKGFVEEMRFVAMRLHTRDQAKEGTLEESALPIQEWQPSQQDYLQFLVDSKHVYDFFENFMNQSQDNMFVNFRRTGLERVSALEEDLDWFRQRGFSIPKPEKPGVAYVEYLQSLVQDKPHALLCHWYNFYFAHTAGGRMIGRLMSKLLFDGHVFEFYKWEGDVKQILDQVRVKIDETARDWPREVKDECLKETGLSFSYSGTILGHLAKRG” here?
A: soluble

Q: Which “soluble on expression in E. coli” value does the source give for “MMYIYTYTDPFGKRRYTYSKDLVKLREKEQKLLKDQLDGLDVYAAGNANLNFVFDRYISTKTELRRTTYTNYMYMYDHYVRDSFGKKKIGEIKYSDVLYFYYHLINERKLQVNTLETIHTVLHPTFQLAVRDDIIRNNPSHGVMSEIKKKPGRNHGVRHALTVEQQRAFMNYTSNSPVFNHWAPLFTVLLGTGCRIGEIIGIRWEDIDLEKRLININHSVTYYPRRAETTKCEFAVSLPKTEAGIRTVPMMEPVYNAFMEEYEYQKENGFSTVTLDGMEGFIFTNRFGNLHNPQAVNRTIKRI” here?
A: not soluble

Q: Which “soluble on expression in E. coli” value does the source give for “MPEEMDKPLISLHLVDSDSSLAKVPDEAPKVGILGSGDFARSLATRLVGSGFKVVVGSRNPKRTARLFPSAAQVTFQEEAVSSPEVIFVAVFREHYSSLCSLSDQLAGKILVDVSNPTEQEHLQHRESNAEYLASLFPTCTVVKAFNVISAWTLQAGPRDGNRQVPICGDQPEAKRAVSEMALAMGFMPVDMGSLASAWEVEAMPLRLLPAWKVP” here?
A: soluble
